In US20110034670:

Tested on: 4-(sulfamoyl)benzoyladenosine-pYEEI conjugate (9)

## Src tyrosine kinase
  enhancement of catalytic activity and phosphorylation: enhanced the catalytic activity and phosphorylation by at least 40%
